Laboratory results reported in US20250382588A1, “CHIMERIC AAV AND USES THEREOF” (priority 2023, published 2025).
Where a chain is given by its changes, count along the chain named. Names and notes keep the numbering of the source.

B1: AAV8R4: AAV8R capsid mutant R490Q, SEQ ID NO: 5 (protein)
chain: MAADGYLPDWLEDNLSEGIREWWALKPGAPKPKANQQKQDDGRGLVLPGYKYLGPFNGLDKGEPVNAADAAALEHDKAYDQQLQAGDNPYLRYNHADAEFQERLQEDTSFGGNLGRAVFQAKKRVLEPLGLVEEGAKTAPGKKRPVEPSPQRSPDSSTGIGKKGQQPARKRLNFGQTGDSESVPDPQPLGEPPAAPSGVGPNTMAAGGGAPMADNNEGADGVGSSSGNWHCDSTWLGDRVITTSTRTWALPTYNNHLYKQISNGTSGGATNDNTYFGYSTPWGYFDFNRFHCHFSPRDWQRLINNNWGFRPKRLSFKLFNIQVKEVTQNEGTKTIANNLTSTIQVFTDSEYQLPYVLGSAHQGCLPPFPADVFMIPQYGYLTLNDGSQAVGRSSFYCLEYFPSQMLRTGNNFQFTYTFEDVPFHSSYAHSQSLDRLMNPLIDQYLYYLSRTQTTGGTANTQTLGFSQGGPNTMANQAKNWLPGPCYRQQQVSTTTGQNNNSNFAWTAGTKYHLNGRNSLANPGIAMATHKDDEERFFPSNGILIFGKQNAARDNADYSDVMLTSEEEIKTTNPVATEEYGIVADNLQRGNLADQDYTKTARQAATADVNSQGALPGMVWQNRDVYLQGPIWAKIPHTDGNFHPSPLMGGFGLKHPPPQILIKNTPVPADPPTTFNQSKLNSFITQYSTGQVSVEIEWELQKENSKRWNPEIQYTSNYYKSINVDFAVNTEGVYSEPRPIGTRYLTRNL
B2: AAV8R5: AAV8R capsid mutant V125I, SEQ ID NO: 6 (protein)
chain: B1 chain with V125I, Q490R
B3: AAV8R6: AAV8R capsid mutant F536Y, SEQ ID NO: 7 (protein)
chain: B1 chain with Q490R, F536Y
B4: AAV8R7: AAV8R capsid mutant A606S, SEQ ID NO: 8 (protein)
chain: B1 chain with Q490R, A606S
B5: AAV8R8: AAV8R capsid mutant T495A, SEQ ID NO: 9 (protein)
chain: B1 chain with Q490R, T495A
B6: AAV8R9: AAV8R capsid mutant V125I + F536Y, SEQ ID NO: 10 (protein)
chain: B1 chain with V125I, Q490R, F536Y
B7: AAV8R10: AAV8R capsid mutant V125I + A606S, SEQ ID NO: 11 (protein)
chain: B1 chain with V125I, Q490R, A606S
B8: AAV8R11: AAV8R capsid mutant V125I + T495A, SEQ ID NO: 12 (protein)
chain: B1 chain with V125I, Q490R, T495A
B9: AAV8R13: AAV8R capsid mutant V125I + F536Y + T495A, SEQ ID NO: 14 (protein)
chain: B1 chain with V125I, Q490R, T495A, F536Y
B10: AAV8R14: AAV8R capsid mutant V125I + A606S + T495A, SEQ ID NO: 15 (protein)
chain: B1 chain with V125I, Q490R, T495A, A606S
B11: AAV8R1: AAV8R capsid mutant V183E, SEQ ID NO: 2 (protein)
chain: B1 chain with V183E, Q490R
B12: AAV8R2: AAV8R capsid mutant N411S, SEQ ID NO: 3 (protein)
chain: B1 chain with N411S, Q490R
B13: AAV8R3: AAV8R capsid mutant Y447F, SEQ ID NO: 4 (protein)
chain: B1 chain with Y447F, Q490R

What was measured:
Type in all cases: in vivo, mice
[1] = tested on: MSNs in the striatum (STR); assay: Promoter activity driving EYFP reporter expression after AAV injection into the SNr: striatum; details: numbers of YFP-expressing neurons per animal
Excerpt: (§1) Brain profiles of two epigenetic marks for enhancers and promoters, monomethylation of histone H3 lysine 4 (H3K4me1) and acetylation of histone H3 lysine 27 (H3K27ac) were checked and approximately 2 kilobase-long sequences around the transcriptional start site (TSS) that have high levels of H3K4me1 and/or H3K27ac were identified in mouse brain. Homologous sequences at equivalent positions of the human genome were then cloned onto an AAV backbone, and the activity of the homologous sequences in directing reporter expression was tested in mice after injections of AAVs into the SNr (FIG. 3A-C, TABLE 3).
G88P2 (2259 bp) was cloned with the following primers: 5′-[…] (SEQ ID NO.: 36) and 3-[…] (SEQ ID NO.: 37). To increase the payload of AAV genome, the G88P2 promoter was shorted using restriction enzymes, and two derivatives, G88P3 and G88P7, were made which were 1395-bp and 896-bp long, respectively (FIG. 3A-3C). Comparative efficiency in labeling MSNs for the two shortened promoters was observed. For mice that received viral injections into the SNr, viruses expressing EYFP driven by G88P3 and G88P7 promoters labeled 3.7±0.66×104 and 3.95±0.73×104 MSNs per mouse, respectively, compared to 1.61±0.16×104 labeled MSNs by hSyn promoter (FIG. 4B).
(§2) Region-selective promoter identification was based on the Allen Brain Atlas in situ hybridization (ISH) data (mouse.brain-map.org/). Genes highly expressed in the striatum but not in other parts of the basal ganglia were first selected as candidates. H3K4me1 and H3K27ac are known epigenetic marks for active promoters and enhancers. Thus, we identified regions with high levels of these two chromatin modification marks in mouse brain as candidate regions based on the ENCODE annotation data on the UCSC Genome Browser (genome.ucsc.edu/). To further extend the promoters' potential application in primates, the sequences of interest were PCR-amplified from human genomic DNA. Based on the above strategies, GPR88 was selected as a candidate gene. The nucleotide sequence upstream of the start codon with high H3K4me1 and H3K27ac levels was selected as the candidate promoter sequence. G88P2 (2259 bp) was cloned with the following primers: 5′-[…]-3′ (SEQ ID NO: 36), 5′-[…]-3′ (SEQ ID NO: 58). G88P3 (1395 bp) and G88P7 (896 bp) were further shortened by subcloning.
Promoters were subcloned into a pAAV-hSyn-EYFP vector derived from pAAV-hSyn-EGFP (Addgene, 50465) to replace the hSyn promoter by using appropriate restriction enzyme combinations. To generate pAAV-G88P7-DIO-tdTomato, a DIO-tdTomato cassette was subcloned into pAAV-G88P7-EYFP to replace EYFP by restriction enzyme digestion. To generate pAAV-G88P3-HA-hM3Dq, promoter G88P3 was subcloned into pAAV-hSyn-HA-hM3Dq-IRES-mCitrine (Addgene, 50463) via the EcoRI/BamHI restriction sites to replace the hSyn promoter and IRES-mCitrine was removed afterwards by restriction enzyme digestion. To generate pAAV-G88P3-HA-hM3Dq-2A-EYFP, a 2A-EYFP fragment was subcloned into pAAV-G88P3-HA-hM3Dq after hM3Dq. […]
Images were acquired using a confocal microscope (Carl Zeiss, LSM880) and an Axiolmager.Z1 microscope with apotome (Carl Zeiss). […] Every sixth section was analyzed, and numbers of EYFP+ cells were multiplied by six to acquire the approximate total number and mean number of cells per animal. […]

substantia nigra (SN) = assay: Promoter activity driving EYFP reporter expression after AAV injection into the SNr: substantia nigra; details: numbers of YFP-expressing neurons per animal
Excerpt: as §1
as §2, with “subcloning. […]” for “subcloning.”
Images were acquired using a confocal microscope (Carl Zeiss, LSM880) and an Axiolmager.Z1 microscope with apotome (Carl Zeiss). […] Every sixth section was analyzed, and numbers of EYFP+ cells were multiplied by six to acquire the approximate total number and mean number of cells per animal. Images were processed using ImageJ (NIH, USA), and final quantifications were independently performed manually by two blinded experimenters.

[2] = tested on: striatal D1 MSNs (striatonigral projection neurons); assay: Retrograde labeling of striatonigral projection neurons after AAV injection into the SNr; details: AAV8R capsid mutants; numbers of labeled neurons per animal
Experimental: To improve efficiency, multiple rounds of mutations of AAV capsids were performed on a series of different serotypes. Mutations were introduced at three sites in the AAV8 capsid protein to make AAV8R, including N385D, insertion of […] (SEQ ID NO: 31) at position 588, and TS711-712IN. Two additional mutations of V183E and N411S were incorporated into the AAV8R12 capsid protein (FIG. 1A). The labeling pattern of the AAV8R12 capsid and G88 promoter combination was determined.
First, the polypeptide fragment RGNLADODYTKTARQAATAD (SEQ ID NO.: 31) was inserted at the N587-R588 position; two other point mutations of the AAV2 Cap protein were made to develop rAAV2-retro. Similar mutations were then placed at equivalent positions for four other AAV serotypes (FIGS. 1A-IC and 25, TABLE 1), AAV1/5/6/8 (FIG. 1A). […] When administered into the SNr, 4.86±0.22 times EYFP positive MSNs in mice infected by AAV8R-hSyn-EYFP were observed as compared to those infected by rAAV2-retro-hSyn-EYFP (FIG. 2A-2C).
Baseline infectivity of rAAV2-retro was approximately 0.2±0.03×10^4 cells per striatal hemisphere (using a hSyn promoter) (TABLE 2). […] Compared to the current standard retrograde AAV, rAAV2-retro, AAV8R12 labeled 7.72±0.78-times more MSNs after nigral delivery (FIG. 2B-2C, TABLE 1). […] The AAV8R12 was generated using the AAV8R plasmid as a template.
Mice were anesthetized with sodium pentobarbital (Nembutal; 80 mg/kg, i.p.), and then placed into a stereotaxic device (KOPF). Eye cream was applied on both corneas to avoid dehydration. The skull above the targeted areas was thinned with a dental drill and carefully removed. Injections were conducted with a 10 μL syringe connected to a 33-Gauge needle (Neuros; Hamilton), using a microsyringe pump (Legato 130, KD Scientific). A total volume of 200 nL virus was injected into the SNr at a speed of 20 nL/min. The coordinates for the SNr were 3.4 mm posterior, 1.3 mm lateral, 4.8 mm ventral to the bregma.
HEK293T cells (ATCC) were co-transfected by calcium phosphate with an AAV vector plasmid, an AAV Rep-Cap plasmid (rAAV2-retro, AAV1R, AAV5R, AAV6R, AAV8R, and AAV8R1-14), and the pAdDeltaF6 helper plasmid (Addgene, 112867) harboring the adenoviral genes required for the AAV life cycle. HEK293T cells grown in 15 cm cell culture dishes were co-transfected with the mixture of three plasmids (1:1:1) at 80% confluency. 48-72 hours post-transfection, cells were collected and resuspended in a buffer containing 150 mM NaCl and 100 mM Tris-HCl (pH 8.0). Cells were lysed by repeated freeze-thaw cycles in liquid nitrogen and a 37° C. water bath. AAV particles were purified and concentrated using Millipore Amicon 100K columns (Merck Millipore, UFC910008). Encapsidated viral DNA was quantitated by qPCR (Thermo Fisher) with primers recognizing the viral WPRE and/or ITR sequences following denaturation of the AAV particles using Proteinase K. Titers were calculated as genome copies per milliliter.
Images were acquired using a confocal microscope (Carl Zeiss, LSM880) and an Axiolmager.Z1 microscope with apotome (Carl Zeiss). Brain structures were identified microscopically and in digital photos using a mouse brain atlas. To analyze the number of EYFP+ cells in the striatum, slices from rostral to caudal striatum were used. Every sixth section was analyzed, and numbers of EYFP+ cells were multiplied by six to acquire the approximate total number and mean number of cells per animal. Images were processed using ImageJ (NIH, USA), and final quantifications were independently performed manually by two blinded experimenters.

Molecule | Activity Level STR [1] | Activity Level SN (substantia nigra (SN)) | Labeling Efficiency in Striatonigral Pathway [2]
G88P2: 2259-bp promoter from the gene GPR88, SEQ ID NO: 59 | ++++ (>25 k) | + (<5 k) | –
B1 | – | – | + (<5 k)
B2 | – | – | + (<5 k)
B3 | – | – | + (<5 k)
B4 | – | – | + (<5 k)
B5 | – | – | + (<5 k)
B6 | – | – | + (<5 k)
B7 | – | – | + (<5 k)
B8 | – | – | + (<5 k)
B9 | – | – | ++ (5 k-10 k)
B10 | – | – | ++ (5 k-10 k)
B11 | – | – | + (<5 k)
B12 | – | – | + (<5 k)
B13 | – | – | + (<5 k)
